Reference: patent US20260242497A1

Tests used:
[1] = molecular target: human FcRn (human) (UniProt P55899); assay: SPR, Biacore 8K, CM5 chip, antibody immobilised, human FcRn as analyte, pH 6.0; average of multiple experiments
[2] = molecular target: human FcRn (human) (UniProt P55899); assay: SPR, Biacore 8K, CM5 chip, antibody immobilised, human FcRn as analyte, pH 6.0

Sequence of human FcRn (human) (P55899 24-297 limits assumed, chain 1 of 2): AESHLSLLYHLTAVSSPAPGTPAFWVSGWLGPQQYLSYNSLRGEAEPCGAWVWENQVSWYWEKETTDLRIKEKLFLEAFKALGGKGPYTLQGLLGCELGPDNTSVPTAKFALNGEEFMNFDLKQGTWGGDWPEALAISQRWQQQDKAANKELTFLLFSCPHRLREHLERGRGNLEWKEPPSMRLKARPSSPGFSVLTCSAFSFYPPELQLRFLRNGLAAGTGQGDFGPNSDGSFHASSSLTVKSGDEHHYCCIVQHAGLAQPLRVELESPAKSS
Sequence of human FcRn (human) (beta, as listed by the source limits assumed, chain 2 of 2): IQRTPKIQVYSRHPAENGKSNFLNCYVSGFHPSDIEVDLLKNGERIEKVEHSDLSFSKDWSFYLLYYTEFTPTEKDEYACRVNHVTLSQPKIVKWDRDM

Rituximab (antibody) gave a Kd [1] of 2130 nM.
With AVTX-009 (Avalo) (antibody) the Kd [2] was 2190 nM.
CALY-002 (Calypso/Novartis) (antibody) gave a Fold Increase (FI) relative to Rituximab [2] of 1.1 fold and a Kd [2] of 1950 nM.
In the case of APG-777 (Apogee) (antibody), the Fold Increase (FI) relative to Rituximab [2] is reported as 10.5 fold and the Kd [2] is reported as 202 nM.
